Laboratory results published in PMC6586535 (Leukemia & lymphoma, 2018).

Target: T1, aryl hydrocarbon receptor (human (endogenous in HL-60), UniProt P35869 11-848)
T1 sequence (looked up): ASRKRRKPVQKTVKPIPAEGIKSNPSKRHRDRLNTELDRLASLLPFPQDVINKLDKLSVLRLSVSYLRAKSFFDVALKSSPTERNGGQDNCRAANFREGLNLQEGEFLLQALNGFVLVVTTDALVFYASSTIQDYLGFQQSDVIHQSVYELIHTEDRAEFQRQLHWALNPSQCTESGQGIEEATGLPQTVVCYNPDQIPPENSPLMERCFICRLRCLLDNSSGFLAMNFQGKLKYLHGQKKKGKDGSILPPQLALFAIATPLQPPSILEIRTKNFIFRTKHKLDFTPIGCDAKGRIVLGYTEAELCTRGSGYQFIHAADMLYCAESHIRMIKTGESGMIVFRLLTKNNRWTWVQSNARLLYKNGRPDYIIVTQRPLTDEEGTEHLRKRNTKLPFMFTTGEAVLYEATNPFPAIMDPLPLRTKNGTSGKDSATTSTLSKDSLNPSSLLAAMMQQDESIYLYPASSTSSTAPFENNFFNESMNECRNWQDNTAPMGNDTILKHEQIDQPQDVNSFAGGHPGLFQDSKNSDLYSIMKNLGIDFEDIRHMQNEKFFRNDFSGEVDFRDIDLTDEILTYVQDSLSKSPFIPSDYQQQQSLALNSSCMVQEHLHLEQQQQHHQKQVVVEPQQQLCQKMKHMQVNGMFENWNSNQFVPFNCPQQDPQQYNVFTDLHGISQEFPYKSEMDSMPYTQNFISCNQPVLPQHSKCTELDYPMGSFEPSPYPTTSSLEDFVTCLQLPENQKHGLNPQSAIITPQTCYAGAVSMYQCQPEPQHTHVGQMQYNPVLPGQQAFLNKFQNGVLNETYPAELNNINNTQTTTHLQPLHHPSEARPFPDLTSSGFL
Test: FRET or BRET

fold weaker FRET signal than the RARα/RXRα interaction: ~4 fold
B1: Cbl-b (natural protein, human (endogenous in HL-60), UniProt Q13191 1-982, looked up)
chain: MANSMNGRNPGGRGGNPRKGRILGIIDAIQDAVGPPKQAAADRRTVEKTWKLMDKVVRLCQNPKLQLKNSPPYILDILPDTYQHLRLILSKYDDNQKLAQLSENEYFKIYIDSLMKKSKRAIRLFKEGKERMYEEQSQDRRNLTKLSLIFSHMLAEIKAIFPNGQFQGDNFRITKADAAEFWRKFFGDKTIVPWKVFRQCLHEVHQISSGLEAMALKSTIDLTCNDYISVFEFDIFTRLFQPWGSILRNWNFLAVTHPGYMAFLTYDEVKARLQKYSTKPGSYIFRLSCTRLGQWAIGYVTGDGNILQTIPHNKPLFQALIDGSREGFYLYPDGRSYNPDLTGLCEPTPHDHIKVTQEQYELYCEMGSTFQLCKICAENDKDVKIEPCGHLMCTSCLTAWQESDGQGCPFCRCEIKGTEPIIVDPFDPRDEGSRCCSIIDPFGMPMLDLDDDDDREESLMMNRLANVRKCTDRQNSPVTSPGSSPLAQRRKPQPDPLQIPHLSLPPVPPRLDLIQKGIVRSPCGSPTGSPKSSPCMVRKQDKPLPAPPPPLRDPPPPPPERPPPIPPDNRLSRHIHHVESVPSRDPPMPLEAWCPRDVFGTNQLVGCRLLGEGSPKPGITASSNVNGRHSRVGSDPVLMRKHRRHDLPLEGAKVFSNGHLGSEEYDVPPRLSPPPPVTTLLPSIKCTGPLANSLSEKTRDPVEEDDDEYKIPSSHPVSLNSQPSHCHNVKPPVRSCDNGHCMLNGTHGPSSEKKSNIPDLSIYLKGDVFDSASDPVPLPPARPPTRDNPKHGSSLNRTPSDYDLLIPPLGEDAFDALPPSLPPPPPPARHSLIEHSKPPGSSSRPSSGQDLFLLPSDPFVDLASGQVPLPPARRLPGENVKTNRTSQDYDQLPSCSDGSQAPARPPKPRPRRTAPEIHHRKPHGPEAALENVDAKIAKLMGEGYAFEEVKRALEIAQNNVEVARSILREFAFPPPVSPRLNL
